The supplement of paper PMC10724198
± gives the standard deviation of the averaged measurements.

System: Saccharomyces cerevisiae
Test: protein stability index of tFT-peptide fusion (C-terminal peptide) (PSI (0-1 scale)); higher = more stable (slower turnover)
Conditions: genetic background: das1 deletion; temperature: 30 C
Experimental: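 MPS profiling in S. cerevisiae of the tFT-X12 degron library: putative degron peptides plus stable controls, 12 aa, fused to the C-terminus of a sfGFP-mCherry timer. Cells are FACS-sorted into 8 mCherry/sfGFP bins and deep-sequenced. PSI runs from 0 (unstable) to 1 (stable). Backgrounds are wild type, das1Δ and doa10Δ at 30 °C, and wild type, das1Δ, cdc34-1 and cdc53-1 at 37 °C; 2-3 technical replicates each.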
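Note: PSI is a weighted mean of sequencing reads over stability bins, variants kept only with over 10 reads, mCherry proximal and sfGFP distal, peptide attached via GGGS linker.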

Row | Sequence | protein stability index
1 | CREFLQSMLFYC | 0.645 ± 0.044
2 | CSAVYNLHLLYS | 0.626 ± 0.013
3 | CSFPTFRSLLLL | 0.502 ± 0.018
4 | CSPSCNIVRLVS | 0.632 ± 0.02
5 | CTYSLSVLFVFF | 0.3 ± 0.03
6 | CVFFCVLVCFLS | 0.302 ± 0.048
7 | CVLSWSLFVVVW | 0.0273 ± 0.0091
8 | CVVFLWCGGCWV | 0.346 ± 0.044
9 | CVVLCLFCWCML | 0.314 ± 0.019
10 | CYCSIGCLIIFS | 0.238 ± 0.033
11 | DALHPCIIYLTC | 0.328 ± 0.035
12 | DECQLCNRDWRG | 0.634 ± 0.015
13 | DKKPMKKILLCI | 0.494 ± 0.025
14 | DRLRSGLSLLLA | 0.556 ± 0.018
15 | DRQMRCVHIHYL | 0.646 ± 0.029
16 | DRYSFYGYVVVL | 0.512 ± 0.042
17 | DVCGVRYVLFVL | 0.49 ± 0.025
18 | DVRLVLCEMIKG | 0.414 ± 0.028
19 | DVYIVLFIIKHG | 0.261 ± 0.052
20 | EFFTLYDLVRFI | 0.669 ± 0.048

Row | Sequence | protein stability index
21 | ELTYVYRTALIA | 0.204 ± 0.016
22 | EMSIISVLRVIS | 0.489 ± 0.02
23 | ERFILVGMFGSW | 0.519 ± 0.017
24 | ERWSPWIVVFTN | 0.421 ± 0.034
25 | ESVPLLIVLHLV | 0.415 ± 0.032
26 | ETVHVISLIAIG | 0.33 ± 0.047
27 | EWFFCLGLFRFH | 0.472 ± 0.044
28 | FASVFCVVTGYV | 0.423 ± 0.018
29 | FCALWLCFRLMV | 0.319 ± 0.028
30 | FCCLVLDLEVSG | 0.36 ± 0.032
31 | FCLFMFVPLLPL | 0.455 ± 0.036
32 | FCMLCVVFLGSL | 0.39 ± 0.029
33 | FCVCLAVTCCGG | 0.277 ± 0.023
34 | FDWLFFFVNFVV | 0.475 ± 0.018
35 | FFAFLRFFIFYW | 0.349 ± 0.032
36 | FFALFLPLACFC | 0.38 ± 0.031
37 | FFCCFVFVLGFC | 0.312 ± 0.028
38 | FFCSILLGIILL | 0.364 ± 0.029
39 | FFFCFFIFCFSL | 0.333 ± 0.026
40 | FFFFSFFLATFS | 0.288 ± 0.055

Row | Sequence | protein stability index
41 | FFGVFIFPVSCR | 0.204 ± 0.028
42 | FFGVLFRVSLFF | 0.191 ± 0.022
43 | FFLLLLRPPLVM | 0.275 ± 0.035
44 | FFRFCFLLLASS | 0.221 ± 0.024
45 | FFSRSLGAGVAA | 0.602 ± 0.028
46 | FFVEFFLLCFCS | 0.463 ± 0.057
47 | FFVSFFFFLWLV | 0.204 ± 0.011
48 | FGFFDIKLPVVA | 0.38 ± 0.024
49 | FGVECDLCLFCC | 0.572 ± 0.0088
50 | FGVVRVSIPVGV | 0.227 ± 0.038
51 | FIFCLSCGVWGG | 0.478 ± 0.039
52 | FILLFGFSHWVW | 0.375 ± 0.028
53 | FILLTLVFGCAS | 0.228 ± 0.02
54 | FLAFLEPRVCCA | 0.246 ± 0.019
55 | FLAFSYIRLLFF | 0.454 ± 0.026
56 | FLCWLSFIPLLS | 0.293 ± 0.034
57 | FLFFCGWVSLFG | 0.394 ± 0.033
58 | FLFFMGVGVVLY | 0.314 ± 0.025
59 | FLFIFFFFLISF | 0.256 ± 0.02
60 | FLFLFLFPFSLI | 0.476 ± 0.016

Same assay, conditions: genetic background: das1 deletion; temperature: 37 C

Row | Sequence | protein stability index
61 | CREFLQSMLFYC | 0.751 ± 0.018
62 | CSAVYNLHLLYS | 0.741 ± 0.011
63 | CSFPTFRSLLLL | 0.671 ± 0.014
64 | CSPSCNIVRLVS | 0.712 ± 0.008
65 | CTYSLSVLFVFF | 0.51 ± 0.056
66 | CVFFCVLVCFLS | 0.439 ± 0.006
67 | CVLSWSLFVVVW | 0.0441 ± 0.011
68 | CVVFLWCGGCWV | 0.725 ± 0.085
69 | CVVLCLFCWCML | 0.451 ± 0.007
70 | CYCSIGCLIIFS | 0.446 ± 0.0093
71 | DALHPCIIYLTC | 0.609 ± 0.00096
72 | DECQLCNRDWRG | 0.726 ± 0.019
73 | DKKPMKKILLCI | 0.6477 ± 0.0033
74 | DRLRSGLSLLLA | 0.669 ± 0.0078
75 | DRQMRCVHIHYL | 0.697 ± 0.011
76 | DRYSFYGYVVVL | 0.66198 ± 4.4e-05
77 | DVCGVRYVLFVL | 0.655 ± 0.024
78 | DVRLVLCEMIKG | 0.624 ± 0.0012
79 | DVYIVLFIIKHG | 0.4415 ± 0.0025
80 | EFFTLYDLVRFI | 0.791 ± 0.05

Row | Sequence | protein stability index
81 | ELTYVYRTALIA | 0.276 ± 0.0057
82 | EMSIISVLRVIS | 0.651 ± 0.021
83 | ERFILVGMFGSW | 0.708 ± 0.0095
84 | ERWSPWIVVFTN | 0.612 ± 0.024
85 | ESVPLLIVLHLV | 0.5979 ± 0.0039
86 | ETVHVISLIAIG | 0.527 ± 0.017
87 | EWFFCLGLFRFH | 0.6152 ± 0.0061
88 | FASVFCVVTGYV | 0.597 ± 0.0062
89 | FCALWLCFRLMV | 0.476 ± 0.03
90 | FCCLVLDLEVSG | 0.5627 ± 0.0037
91 | FCLFMFVPLLPL | 0.5868 ± 0.0043
92 | FCMLCVVFLGSL | 0.6206 ± 0.0047
93 | FCVCLAVTCCGG | 0.477 ± 0.0066
94 | FDWLFFFVNFVV | 0.546 ± 0.029
95 | FFAFLRFFIFYW | 0.435 ± 0.0075
96 | FFALFLPLACFC | 0.4899 ± 0.0037
97 | FFCCFVFVLGFC | 0.4401 ± 0.0036
98 | FFCSILLGIILL | 0.507 ± 0.016
99 | FFFCFFIFCFSL | 0.463 ± 0.013
100 | FFFFSFFLATFS | 0.418 ± 0.013

Row | Sequence | protein stability index
101 | FFGVFIFPVSCR | 0.292 ± 0.01
102 | FFGVLFRVSLFF | 0.3075 ± 0.0027
103 | FFLLLLRPPLVM | 0.4464 ± 0.0041
104 | FFRFCFLLLASS | 0.4 ± 0.01
105 | FFSRSLGAGVAA | 0.715 ± 0.041
106 | FFVEFFLLCFCS | 0.503 ± 0.036
107 | FFVSFFFFLWLV | 0.261 ± 0.014
108 | FGFFDIKLPVVA | 0.5539 ± 0.0013
109 | FGVECDLCLFCC | 0.692 ± 0.03
110 | FGVVRVSIPVGV | 0.3584 ± 0.0023
111 | FIFCLSCGVWGG | 0.593 ± 0.023
112 | FILLFGFSHWVW | 0.5333 ± 0.0017
113 | FILLTLVFGCAS | 0.424 ± 0.0066
114 | FLAFLEPRVCCA | 0.354 ± 0.0058
115 | FLAFSYIRLLFF | 0.6128 ± 0.0054
116 | FLCWLSFIPLLS | 0.366 ± 0.0095
117 | FLFFCGWVSLFG | 0.4966 ± 0.0014
118 | FLFFMGVGVVLY | 0.452 ± 0.023
119 | FLFIFFFFLISF | 0.311 ± 0.027
120 | FLFLFLFPFSLI | 0.567 ± 0.009
